Reference: patent US20240350653A1 (JOINT STOCK COMPANY GENERIUM, published 2024)

Assays:
[1] = target: T1, mouse insulin receptor (mInsR, R&D Systems, Inc., Cat. No. 7544-MR) (mouse, UniProt P15208 28-946, limits assumed); test: ELISA on mouse insulin receptor
T1 construct: extracellular domain; Bought protein; also called extracellular domain of the mouse insulin receptor

[2] = target: T2, Human Insulin Receptor protein fragment (Abcam cat #ab200510) (human, UniProt P06213-2 28-944, limits assumed); test: ELISA on human insulin receptor fragment
T2 construct: domain: extracellular domain of the alpha subunit; Bought fragment; also called HIR; extracellular domain of the alpha subunit of the human insulin receptor

[3] = target: T2, Human Insulin Receptor protein fragment …; test: ELISA on human insulin receptor fragment, relative to 83-14 mAb

| Binder | EC50 [1] [µg/mL] | Receptor binding, % [1] [%] | EC50 [2] [µg/mL] | Receptor binding from antibody 83-14 mAb, % [3] [%] |
| --- | --- | --- | --- | --- |
| HIR-FAB-IDS (SEQ ID NO: 8 and SEQ ID NO: 12) (Fab, Variant of the Fab-iduronate-2-sulfatase fusion) light: DIQMTQSPSSLSASVGDRVTITCRASQDIGGNLYWYQQKPGKAPKLLIYATSSLDSGVPSRFSGSGSGTDFTLTISSLQPEDVATYYCLQYSSSPWTFGQGTKVEIKRTVAAPSVFIFPPSDEQLKSGTASVVCLLNNFYPREAKVQWKVDNALQSGNSQESVTEQDSKDSTYSLSSTLTLSKADYEKHKVYACEVTHQGLSSPVTKSFNRGEC heavy: EVQLVESGGGLVQPGRSLRLSCAASGFTFTNYDIHWVRQAPGKGLEWVSWIYPGDGSTKYNEKFKGRFTISRDNAKNSLYLQMNSLRAEDTAVYYCAKEWAYWGQGTLVTVSSASTKGPSVFPLAPSSKSTSGGTAALGCLVKDYFPEPVTVSWNSGALTSGVHTFPAVLQSSGLYSLSSVVTVPSSSLGTQTYICNVNHKPSNTKVDKKVEPKSCDKTHLSSSETQANSTTDALNVLLIIVDDLRPSLGCYGDKLVRSPNIDQLASHSLLFQNAFAQQAVCAPSRVSFLTGRRPDTTRLYDFNSYWRVHAGNFSTIPQYFKENGYVTMSVGKVFHPGISSNHTDDSPYSWSFPPYHPSSEKYENTKTCRGPDGELHANLLCPVDVLDVPEGTLPDKQSTEQAIQLLEKMKTSASPFFLAVGYHKPHIPFRYPKEFQKLYPLENITLAPDPEVPDGLPPVAYNPWMDIRQREDVQALNISVPYGPIPVDFQRKIRQSYFASVSYLDTQVGRLLSALDDLQLANSTIIAFTSDHGWALGEHGEWAKYSNFDVATHVPLIFYVPGRTASLPEAGEKLFPYLDPFDSASQLMEPGRQSMDLVELVSLFPTLAGLAGLQVPPRCPVPSFHVELCREGKNLLKHFRFRDLEEDPYLPGNPRELIAYSQYPRPSDIPQWNSDKPSLKDIKIMGYSIRTIDYRYTVWVGFNPDEFLANFSDIHAGELYFVDSDPLQDHNMYNDSQGGDLFQLLMP | > 0.8 | 0 | 0.121 | 27 |
| HIR-FAB-IDS (SEQ ID NO: 9 and SEQ ID NO: 13) (Fab, Variant of the Fab-iduronate-2-sulfatase fusion) light: EIVLTQSPDFQSVTPKEKVTITCRASQDIGGNLYWYQQKPDQSPKLLIKATSSLDSGVPSRFSGSGSGTDFTLTINSLEAEDAAAYYCLQYSSSPWTFGPGTKVDIKRTVAAPSVFIFPPSDEQLKSGTASVVCLLNNFYPREAKVQWKVDNALQSGNSQESVTEQDSKDSTYSLSSTLTLSKADYEKHKVYACEVTHQGLSSPVTKSFNRGEC heavy: QVQLVESGGGVVQPGRSLRLSCAASGFTFSNYDIHWVRQAPGKGLEWVAWIYPGDGSTKYNEKFKGRFTISRDNSKNTLYLQMNGLRAEDTAVYYCAREWAYWGQGTLVTVSSASTKGPSVFPLAPSSKSTSGGTAALGCLVKDYFPEPVTVSWNSGALTSGVHTFPAVLQSSGLYSLSSVVTVPSSSLGTQTYICNVNHKPSNTKVDKRVEPKSCDKTHLSSSETQANSTTDALNVLLIIVDDLRPSLGCYGDKLVRSPNIDQLASHSLLFQNAFAQQAVCAPSRVSFLTGRRPDTTRLYDFNSYWRVHAGNFSTIPQYFKENGYVTMSVGKVFHPGISSNHTDDSPYSWSFPPYHPSSEKYENTKTCRGPDGELHANLLCPVDVLDVPEGTLPDKQSTEQAIQLLEKMKTSASPFFLAVGYHKPHIPFRYPKEFQKLYPLENITLAPDPEVPDGLPPVAYNPWMDIRQREDVQALNISVPYGPIPVDFQRKIRQSYFASVSYLDTQVGRLLSALDDLQLANSTIIAFTSDHGWALGEHGEWAKYSNFDVATHVPLIFYVPGRTASLPEAGEKLFPYLDPFDSASQLMEPGRQSMDLVELVSLFPTLAGLAGLQVPPRCPVPSFHVELCREGKNLLKHFRFRDLEEDPYLPGNPRELIAYSQYPRPSDIPQWNSDKPSLKDIKIMGYSIRTIDYRYTVWVGFNPDEFLANFSDIHAGELYFVDSDPLQDHNMYNDSQGGDLFQLLMP | > 0.8 | 0 | 0.0604 | 55 |
| HIR-FAB-IDS (SEQ ID NO: 2 and SEQ ID NO: 4) (Fab, Fab fragment of an IgG1 antibody to the human insulin receptor, fused to iduronate-2-sulfatase; also called rIDS-FAB-HI; rHI-FAB-IDS) light: DIQMTQSPSSLSASLGERVSLTCRASQDIGGNLYWLQQGPDGTIKRLIYATSSLDSGVPKRFSGSRSGSDYSLTISSLESEDFVDYYCLQYSSSPWTFGGGTKMEIKRTVAAPSVFIFPPSDEQLKSGTASVVCLLNNFYPREAKVQWKVDNALQSGNSQESVTEQDSKDSTYSLSSTLTLSKADYEKHKVYACEVTHQGLSSPVTKSFNRGEC heavy: QVQLQQSGPELVKPGALVKISCKASGYTFTNYDIHWVKQRPGQGLEWIGWIYPGDGSTKYNEKFKGKATLTADKSSSTAYMHLSSLTSEKSAVYFCAREWAYWGQGTLVTVSAASTKGPSVFPLAPSSKSTSGGTAALGCLVKDYFPEPVTVSWNSGALTSGVHTFPAVLQSSGLYSLSSVVTVPSSSLGTQTYICNVNHKPSNTKVDKKVEPKSCDKTHLSSSETQANSTTDALNVLLIIVDDLRPSLGCYGDKLVRSPNIDQLASHSLLFQNAFAQQAVCAPSRVSFLTGRRPDTTRLYDFNSYWRVHAGNFSTIPQYFKENGYVTMSVGKVFHPGISSNHTDDSPYSWSFPPYHPSSEKYENTKTCRGPDGELHANLLCPVDVLDVPEGTLPDKQSTEQAIQLLEKMKTSASPFFLAVGYHKPHIPFRYPKEFQKLYPLENITLAPDPEVPDGLPPVAYNPWMDIRQREDVQALNISVPYGPIPVDFQRKIRQSYFASVSYLDTQVGRLLSALDDLQLANSTIIAFTSDHGWALGEHGEWAKYSNFDVATHVPLIFYVPGRTASLPEAGEKLFPYLDPFDSASQLMEPGRQSMDLVELVSLFPTLAGLAGLQVPPRCPVPSFHVELCREGKNLLKHFRFRDLEEDPYLPGNPRELIAYSQYPRPSDIPQWNSDKPSLKDIKIMGYSIRTIDYRYTVWVGFNPDEFLANFSDIHAGELYFVDSDPLQDHNMYNDSQGGDLFQLLMP | > 0.8 | 0 | 0.0243 | 136 |

The remaining lines, values ahead:

| EC50 [1] [µg/mL] | Receptor binding, % [1] [%] | EC50 [2] [µg/mL] | Receptor binding from antibody 83-14 mAb, % [3] [%] | Binder |
| --- | --- | --- | --- | --- |
| > 0.8 | 0 | 0.156 | 21 | HIR-FAB-IDS (SEQ ID NO: 11 and SEQ ID NO: 15) (Fab, Variant of the Fab-iduronate-2-sulfatase fusion) light: EIVLTQSPATLSLSPGERATLSCRASQDIGGNLYWYQQKPGQAPRLLIYATSSLDSGIPARFSGSGSGTDFTLTISSLEPEDFAVYYCLQYSSSPWTFGQGTRLEIKRTVAAPSVFIFPPSDEQLKSGTASVVCLLNNFYPREAKVQWKVDNALQSGNSQESVTEQDSKDSTYSLSSTLTLSKADYEKHKVYACEVTHQGLSSPVTKSFNRGEC heavy: EVQLVESGGGLVQPGRSLRLSCAASGFTFNNYDIHWVRQAPGKGLEWVSWIYPGDGSTKYNEKFKGRFTISRDNAKKSLYLQMNSLRAEDTALYYCAKEWAYWGQGTTVTVSSASTKGPSVFPLAPGSSKSTSGTAALGCLVKDYFPEPVTVSWNSGALTSGVHTFPAVLQSSGLYSLSSVVTVPSSSLGTQTYICNVNHKPSNTKVDKKVEPKSCDKTHLSSSETQANSTTDALNVLLIIVDDLRPSLGCYGDKLVRSPNIDQLASHSLLFQNAFAQQAVCAPSRVSFLTGRRPDTTRLYDFNSYWRVHAGNFSTIPQYFKENGYVTMSVGKVFHPGISSNHTDDSPYSWSFPPYHPSSEKYENTKTCRGPDGELHANLLCPVDVLDVPEGTLPDKQSTEQAIQLLEKMKTSASPFFLAVGYHKPHIPFRYPKEFQKLYPLENITLAPDPEVPDGLPPVAYNPWMDIRQREDVQALNISVPYGPIPVDFQRKIRQSYFASVSYLDTQVGRLLSALDDLQLANSTIIAFTSDHGWALGEHGEWAKYSNFDVATHVPLIFYVPGRTASLPEAGEKLFPYLDPFDSASQLMEPGRQSMDLVELVSLFPTLAGLAGLQVPPRCPVPSFHVELCREGKNLLKHFRFRDLEEDPYLPGNPRELIAYSQYPRPSDIPQWNSDKPSLKDIKIMGYSIRTIDYRYTVWVGFNPDEFLANFSDIHAGELYFVDSDPLQDHNMYNDSQGGDLFQLLMP |
| > 0.8 | 0 | 0.0351 | 94 | HIR-FAB-IDS (SEQ ID NO: 10 and SEQ ID NO: 14) (Fab, Variant of the Fab-iduronate-2-sulfatase fusion) light: DIQLTQSPSSLSASVGDRVTITCRASQDIGGNLYWYQQKPGKAPKVLIYATSSLDSGVPSRFSGSGSGTDFTLTISSLQPEDFATYYCLQYSSSPWTFGQGTKVEIKRTVAAPSVFIFPPSDEQLKSGTASVVCLLNNFYPREAKVQWKVDNALQSGNSQESVTEQDSKDSTYSLSSTLTLSKADYEKHKVYACEVTHQGLSSPVTKSFNRGEC heavy: EVQLVESGGGLVQPGGSLRLSCAASGYDFTNYDIHWVRQAPGKGLEWVGWIYPGDGSTKYNEKFKGRFTFSLDTSKSTAYLQMNSLRAEDTAVYYCAKEWAYWGQGTLVTVSSASTKGPSVFPLAPSSKSTSGGTAALGCLVKDYFPEPVTVSWNSGALTSGVHTFPAVLQSSGLYSLSSVVTVPSSSLGTQTYICNVNHKPSNTKVDKKVEPKSCDKTHLSSSETQANSTTDALNVLLIIVDDLRPSLGCYGDKLVRSPNIDQLASHSLLFQNAFAQQAVCAPSRVSFLTGRRPDTTRLYDFNSYWRVHAGNFSTIPQYFKENGYVTMSVGKVFHPGISSNHTDDSPYSWSFPPYHPSSEKYENTKTCRGPDGELHANLLCPVDVLDVPEGTLPDKQSTEQAIQLLEKMKTSASPFFLAVGYHKPHIPFRYPKEFQKLYPLENITLAPDPEVPDGLPPVAYNPWMDIRQREDVQALNISVPYGPIPVDFQRKIRQSYFASVSYLDTQVGRLLSALDDLQLANSTIIAFTSDHGWALGEHGEWAKYSNFDVATHVPLIFYVPGRTASLPEAGEKLFPYLDPFDSASQLMEPGRQSMDLVELVSLFPTLAGLAGLQVPPRCPVPSFHVELCREGKNLLKHFRFRDLEEDPYLPGNPRELIAYSQYPRPSDIPQWNSDKPSLKDIKIMGYSIRTIDYRYTVWVGFNPDEFLANFSDIHAGELYFVDSDPLQDHNMYNDSQGGDLFQLLMP |
